Results as given in patent publication US20130216547A1 (Regeneron, published 2013).

T1: human big-endothelin-1 (big-ET-1) (human)
T1 construct: 38 amino acid peptide; also called human big-ET-1; hBig-ET-1
T1 peptide: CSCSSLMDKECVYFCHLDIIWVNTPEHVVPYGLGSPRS

T2: mouse big-ET-1 (mouse)
T2 peptide: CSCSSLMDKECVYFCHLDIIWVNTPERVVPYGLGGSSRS

T3: small-ET-1 (endothelin-1) (human)
T3 construct: 21 amino acid peptide, same for mouse and human; also called human small-ET-1; EDN-1
T3 peptide: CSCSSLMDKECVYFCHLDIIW


Experiments:
[1] = target: T1, human big-endothelin-1 (big-ET-1); assay: SPR (Biacore T200), 37 C, mAb capture, peptide analyte
Procedure: (§1) Measurements were conducted on a T200 Biacore instrument (Biacore Life Sciences division of GE Healthcare, Piscataway, N.J.). […] Peptide binding was monitored for 3 min while dissociation of mAb-bound peptide was monitored for 4 min in HBST running buffer (0.01 M HEPES pH 7.4, 0.15 M NaCl, 3 mM EDTA, 0.005% v/v Surfactant P20). Kinetic association (kₐ) and dissociation (kd) rate constants were determined by processing and fitting the data to a 1:1 binding model using Scrubber 2.0 curve fitting software.

mouse big-ET-1 [2] = target: T2, mouse big-ET-1; assay: cell-based or functional assay
[3] = target: T3, small-ET-1 (endothelin-1); assay: SPR (Biacore T200), 37 C, mAb capture, peptide analyte
Procedure: as §1

mouse big-ET-1 [4] = target: T2, mouse big-ET-1; assay: as above
Procedure: as §1

[5] = target: T1, human big-endothelin-1 (big-ET-1); assay: cell-based or functional assay

| Binder | Kd [1] [nM] | T½ [1] [s] | koff [1] [s⁻¹] | kon [1] [M⁻¹ s⁻¹] | Blocking IC50(M), 20 nM mBig-ET-1 + 5 nM mECE1; 293/ETaR/NFAT-Luc luciferase (mouse big-ET-1 [2]) [M] | binding result [3] | T½ (mouse big-ET-1 [4]) [s] | koff (mouse big-ET-1 [4]) [s⁻¹] | kon (mouse big-ET-1 [4]) [M⁻¹ s⁻¹] | Kd (mouse big-ET-1 [4]) [nM] | Blocking IC50(M), 10 nM hBig-ET-1 + 3 nM hECE1; 293/ETaR/NFAT-Luc luciferase [5] [M] |
| --- | --- | --- | --- | --- | --- | --- | --- | --- | --- | --- | --- |
| H4H6316P (antibody, V domains shown, Human IgG4 Fc (prefix H4H)) VH: QVQLVESGGGVVQPGRSLRLSCEASGFTFSSYGMHWVRQAPGKGLEWVAVFWYDGSNKYYADSVKGRFTISRDNSKNTLYLQMNSLTAEDTAIYYCARAYDAFDIWGQGTMVTVSS VL: not shown | 14.8 | 1620 | 0.000428 | 28800 | > 1e-07 | no binding |  |  |  |  |  |
| H4H6317P (antibody, V domains shown, Human IgG4 Fc (prefix H4H)) VH: QVQLVESGGGVVQPGRSLRLSCAASGFTFSSYGMHWVRQAPGKGLEWVAVLWYDGRNKYYADSVKGRFTISRDNSKNTLYLQMNSLRAEDTAVYYCARSYDAFDIWGQGTMVTVSS VL: DIQMTQSPSTLSASVGDRVTITCRASQSISSWLAWFQQGPGRAPKLLIYKASTLQSGVPSRFSGSGSGTEFTLTISSLQPDDFATYYCQQYRSYSPTFGQGTKVEIK | 5.42 | 3480 | 0.000199 | 36700 | > 1e-07 | no binding |  |  |  |  |  |
| H4H6311P (antibody, V domains shown, Human IgG4 Fc (prefix H4H)) VH: QVQLVESGGGVVQPGRSLRLSCAASGFTFSTYGMHWVRQAPGKGLEWVAVFWFDGSNKYYADSVKGRFTISRDNSKNTIYLQMNSLRAEDTAIYYCARAYDAFDIWGQGTMVTVSS VL: not shown | 15.2 | 2400 | 0.000292 | 19200 |  | no binding |  |  |  |  |  |
| H4H6338P (antibody, V domains shown, Human IgG4 Fc (prefix H4H)) VH: EVQLVESGGGLVQPGGSLRLSCAASGFAFSSYAMTWVRQTPGKGLEWVSSISGSGGSTYYADSVKGRFTISRDNSKNTLYLQMNSLRAEDTAVYYCAKARTGTHAFDIWGQGTMVTVSS VL: not shown |  | 6 | 0.12 | 454000 |  | no binding | 0.6 | 0.885 | 190000 |  |  |
| H4H6345P (antibody, V domains shown, Human IgG4 Fc (prefix H4H)) VH: EVQLVESGGGLVQPGGSLRLSCAASGFIFSSYAMTWVRQAPGKGLEWVSAISGSGVSTYYADSVKGRFTISRDNSKNTLYLQMNSLRIEDTAVYYCGKARTGTHAFDIWGQGTMVTVSS VL: DIQMTQSPSTLSASVGDRVTITCRASQSISRWLAWYQQKPGKAPKLLIYKASSLETGVPSRFSGSGSGTEFTLTISSLQPDDFGTYYCQQYNSYSSFGPGTKVDIK | 87.4 | 12 | 0.058 | 663000 |  | no binding | 6 | 0.0974 | 1.5e+06 | 65 |  |
| H4H6343P (antibody, V domains shown, Human IgG4 Fc (prefix H4H)) VH: EVQLLESGGGLVQPGGSLRLSCAASGFTFSSYAMSWVRQAPGKGLEWVSAISGSGVGTYYADSVKGRFTISRDNSKNTLYLQMNSLRAEDTAVYYCPKARTGTHAFDIWGQGTMVTVSS VL: not shown |  | 36 | 0.018 | 1.61e+06 |  | no binding | 18 | 0.0453 | 1.8e+06 |  |  |
| H4H6334P2 (antibody, V domains shown, Human IgG4 Fc (prefix H4H)) VH: EVQLVESGGGLVKPGGSLRLSCAVSGFTFSIDWMIWVRQAPGTGLEWVGRIKRKTDGGTTDYAAPVKGRFTISRDDSKNTLYLQMNSLKTEDTAIYYCATGGFERWGQGTLVTVSS VL: not shown | 225 | 18 | 0.0349 | 155000 |  | no binding |  |  |  |  |  |
| H4H6323P (antibody, V domains shown, Human IgG4 Fc (prefix H4H)) VH: QITLKESGPPLVKPTQTLTLTCTFSGFSLNTNGMGVGWIRQPPGKALEWLTLIYWNDDKRYSPSLKTRLTITKDTSKNQVVLTMTNMDPVDTATYYCARFGSGTYWGQGTLVTVSS VL: DIVMTQSPLSLPVTPGEPASISCRSSQSLLHSYGYNFLDWFLQKPGQSPQLLIYLGSHRASGVPDRFSGSGSGTDFTLKISRVEAEDVGVYYCMQALQTPLTFGGGTKVEIK | 10.1 | 120 | 0.00569 | 565000 | 4e-09 | no binding | 36 | 0.0192 | 580000 | 32.9 | 7.6e-09 |
| H4H6492N2 (antibody, V domains shown, Human IgG4 Fc (prefix H4H)) VH: EVQLVESGGGLVKPGGSLRVSCVASGFTFSNAWMTWVRQTPGKGLEWVGRIKSRTDGGTVDYVAPVKGRFTISRDDSKNTLYLQMNSLKAEDTAVYYCRADLDYWGQGTLVTVSS VL: DVVMTQSPLSLPVSLGQPASISCRSSQSLVHSDGITYLNWFQQRPGQSPRRLIYKISNRDSGVPDRFSGSGSGTDFTLKFSRVEAEDVGVYFCMQGTHWPYTFGQGTKLEIK | 70 | 24 | 0.0297 | 424000 |  | no binding |  |  |  |  | 4.17e-08 |
| H4H6329P (antibody, V domains shown, Human IgG4 Fc (prefix H4H)) VH: QVQLVESGGGVVQPGRSLRLSCAASGFTFGSYGMHWVRQAPGKGLEWVAVIWYDGSDEYYTDSVKGRFTVSRDNSKYTLYLQMNSLRADDTAVYYCARDGYRTRGNYFDYWGQGTLVTVSS VL: DVVMTQSPLSLPVALGQPASISCRSSQSLVYSDGNTYLNWFQQRPGQSPRRLIYKVSNRDSGVPDRFGGSGSGTDFTLKISRVEAEDVGLYYCMQGTHWPPTFGGGTKVEIK | 0.297 | 3900 | 0.000176 | 595000 | > 1e-07 | no binding | 3120 | 0.000223 | 11600 | 19 | 3.3e-09 |
| H4H6330P (antibody, V domains shown, Human IgG4 Fc (prefix H4H)) VH: EVQLVESGGGLVQPGGSLRLSCAASGFTFSNYAMSWVRQAPGKGLEWVSAVSGSGVGTYYADSVKGRFTISRDNSKNTLYLQMKSLSAEDTALYYCTKTLGGTHAFDIWGQGTMVTVSS VL: DIQMTQSPSTLSASVGDRVTITCRASQSISRWLAWYQQKPGKAPKLLIYKASSLESGVPSRFSGSGSGTEFTVTINSLQPDDFATYYCQQYNSYSSFGQGTKLEIK | 22.9 | 24 | 0.0324 | 1.42e+06 | 1.6e-09 | no binding | 12 | 0.072 | 1.5e+06 | 50 | 1.7e-09 |
| H4H6332P (antibody, V domains shown, Human IgG4 Fc (prefix H4H)) VH: EVQLVESGEGLVQPGGSLRLSCAASGFIFSSYAMSWVRQAPGKGLEWVSAISGSGVGTYYADSVKGRFTISRDNSKNTLYLQMNSLRAEDTAVYFCAKTLSGTHAFDIWGQGTMVTVSS VL: not shown | 29.5 | 18 | 0.0429 | 1.45e+06 | 1.2e-09 | no binding | 6 | 0.196 | 2e+06 | 100 | 3.1e-09 |
